Columns and labels:
human CTLA-4 (human) [1] = molecular target: human CTLA-4 (human) (UniProt P16410); test: flow cytometry, CHO cells stably expressing CTLA4
human PD-L1 (human) [2] = molecular target: human PD-L1 (human) (UniProt Q9NZQ7)
CD28 (human) [3] = molecular target: CD28 (human) (UniProt P10747)
human CTLA-4 (human) [4] = molecular target: human CTLA-4 (human) (UniProt P16410); test: flow cytometry, CHO/CTLA4 cells; MFI over CD80 WT IgV-Fc
CD28 (human) [5] = molecular target: CD28 (human) (UniProt P10747); test: flow cytometry, Jurkat cells (CD28); MFI over CD80 WT IgV-Fc
human PD-L1 (human) [6] = molecular target: human PD-L1 (human) (UniProt Q9NZQ7); test: flow cytometry, CHO cells stably expressing PD-L1
human PD-L1 (human) [7] = molecular target: human PD-L1 (human) (UniProt Q9NZQ7); test: flow cytometry, CHO/PD-L1 cells; MFI over CD80 WT IgV-Fc
CD28 (human) [8] = molecular target: CD28 (human) (UniProt P10747); test: flow cytometry, Jurkat cells (CD28)
human PD-L1 (human) [9] = molecular target: human PD-L1 (human) (UniProt Q9NZQ7); test: flow cytometry, CHO cells expressing PD-L1
human PD-L1 (human) [10] = molecular target: human PD-L1 (human) (UniProt Q9NZQ7); test: flow cytometry, MFI on PD-L1 over MFI on CD28
human CTLA-4 (human) [11] = molecular target: human CTLA-4 (human) (UniProt P16410); test: flow cytometry, CHO cells expressing CTLA4
human PD-L1 (human) [12] = molecular target: human PD-L1 (human) (UniProt Q9NZQ7); remark: listed apart in the source
CD28 (human) [13] = molecular target: CD28 (human) (UniProt P10747); remark: listed apart in the source
human PD-L1 (human) [14] = molecular target: human PD-L1 (human) (UniProt Q9NZQ7); test: flow cytometry, MFI on CHO/PD-L1 over MFI on Jurkat (CD28)

Chain of human CTLA-4 (human) (P16410 36-223): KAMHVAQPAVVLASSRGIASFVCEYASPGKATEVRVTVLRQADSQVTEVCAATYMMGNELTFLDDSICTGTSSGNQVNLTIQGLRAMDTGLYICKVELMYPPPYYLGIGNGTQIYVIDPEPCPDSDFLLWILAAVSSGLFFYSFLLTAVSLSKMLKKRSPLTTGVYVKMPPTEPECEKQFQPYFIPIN
Chain of human PD-L1 (human) (Q9NZQ7 19-290): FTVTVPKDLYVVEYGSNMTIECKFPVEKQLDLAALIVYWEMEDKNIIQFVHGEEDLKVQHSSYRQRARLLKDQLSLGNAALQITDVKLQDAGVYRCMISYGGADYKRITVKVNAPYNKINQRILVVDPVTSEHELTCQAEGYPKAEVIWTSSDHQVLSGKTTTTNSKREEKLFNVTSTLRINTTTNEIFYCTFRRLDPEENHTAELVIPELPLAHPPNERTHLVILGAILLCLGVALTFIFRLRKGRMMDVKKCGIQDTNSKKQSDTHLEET

Row | MFI at 33.3 nM (human CTLA-4 (human) [1]) | IL2-luciferase reporter, fold increase in RLU over WT CD80-IgV-Fc at 5.0 nM (human PD-L1 (human) [2]) | IL2-luciferase reporter, fold increase in RLU over WT CD80-IgV-Fc at 5.0 nM (CD28 (human) [3]) | Fold change to WT CD80 (human CTLA-4 (human) [4]) | Fold change to WT CD80 (CD28 (human) [5]) | MFI at 33.3 nM (human PD-L1 (human) [6]) | Fold change to WT CD80 (human PD-L1 (human) [7]) | MFI at 33.3 nM (CD28 (human) [8]) | Fold change to WT CD80 (human PD-L1 (human) [9]) | MFI at 33.3 nM (human PD-L1 (human) [9]) | Ratio of PDL1:CD28 (human PD-L1 (human) [10]) | Fold change to WT CD80 (human CTLA-4 (human) [11]) | MFI at 33.3 nM (human CTLA-4 (human) [11]) | Fold change to WT CD80 (CD28 (human) [8]) | IL2-luciferase reporter (RLU), fold increase over WT CD80-IgV-Fc at 5.0 nM (human PD-L1 (human) [12]) | IL2-luciferase reporter (RLU), fold increase over WT CD80-IgV-Fc at 5.0 nM (CD28 (human) [13]) | Fold change to WT CD80 (human CTLA-4 (human) [1]) | Ratio of PDL1:CD28 (human PD-L1 (human) [14]) | Fold change to WT (human PD-L1 (human) [6]) | Fold change to WT (CD28 (human) [8]) | Binder
1 | 26600 MFI | 5.26 fold | 5.26 fold | 22.2 fold | 2.6 fold | 22400 MFI | 481 fold | 143 MFI | – | – | – | – | – | – | – | – | – | – | – | – | CD80 E35D/D46V/M47L/V68M/L85Q/E88D IgV-Fc, GS(G4S)5 linker (Fc fusion) VIHVTKEVKEVATLSCGHNVSVEELAQTRIYWQKDKKMVLTMMSGVLNIWPEYKNRTIFDITNNLSIMILALRPSDEGTYECVVQKYDKDAFKREHLAEVTLSVKADGSGGGGSGGGGSGGGGSGGGGSGGGGS
2 | – | – | – | – | – | – | – | 245 MFI | 148 fold | 7620 MFI | 31.1 | 8.9 fold | 15600 MFI | 7.8 fold | – | – | – | – | – | – | CD80 E35D/M47V/N48K/V68M/L85M IgV-Fc (Fc fusion) VIHVTKEVKEVATLSCGHNVSVEELAQTRIYWQKDKKMVLTMMSGDVKIWPEYKNRTIFDITNNLSIMILALRPSDEGTYECVVMKYEKDAFKREHLAEVTLSVKAD
3 | – | – | – | – | – | – | – | – | – | – | – | – | – | – | 4.7 fold | 4.7 fold | – | – | – | – | CD80 H18Y/E35D/M47L/A71G/A91S IgV-Fc (Fc fusion) VIHVTKEVKEVATLSCGYNVSVEELAQTRIYWQKDKKMVLTMMSGDLNIWPEYKNRTIFDITNNLSIVILGLRPSDEGTYECVVLKYEKDSFKREHLAEVTLSVKAD
4 | 214 MFI | – | – | – | – | 13200 MFI | – | 15 MFI | – | – | – | – | – | – | – | – | 0.2 fold | 863 | 158 fold | 0.4 fold | CD80 IgV-Fc E35D/D46E/M47L/V68M/L85Q/F92L (Fc fusion) VIHVTKEVKEVATLSCGHNVSVEELAQTRIYWQKDKKMVLTMMSGELNIWPEYKNRTIFDITNNLSIMILALRPSDEGTYECVVQKYEKDALKREHLAEVTLSVKAD
5 | 10300 MFI | – | – | – | – | 8460 MFI | – | 1590 MFI | – | – | – | – | – | – | – | – | 10 fold | 5 | 101 fold | 38.5 fold | CD80 IgV-Fc H18Y/V22A/E35D/T41S/M47V/T62N/A71G/A91G (Fc fusion) VIHVTKEVKEVATLSCGYNVSAEELAQTRIYWQKDKKMVLSMMSGDVNIWPEYKNRTIFDINNNLSIVILGLRPSDEGTYECVVLKYEKDGFKREHLAEVTLSVKAD
6 | – | – | – | – | – | – | – | 112 MFI | 368 fold | 18900 MFI | 169 | 7.7 fold | 13400 MFI | 3.6 fold | – | – | – | – | – | – | CD80 T13R/Q33R/E35D/M47L/V68M/L85M IgV-Fc (Fc fusion) VIHVTKEVKEVARLSCGHNVSVEELAQTRIYWRKDKKMVLTMMSGDLNIWPEYKNRTIFDITNNLSIMILALRPSDEGTYECVVMKYEKDAFKREHLAEVTLSVKAD
7 | – | – | – | – | – | – | – | 373 MFI | 326 fold | 16800 MFI | 45 | 10.5 fold | 18400 MFI | 11.9 fold | – | – | – | – | – | – | CD80 H18Y/E35D/M47V/V68M/L85M IgV-Fc (Fc fusion) VIHVTKEVKEVATLSCGYNVSVEELAQTRIYWQKDKKMVLTMMSGDVNIWPEYKNRTIFDITNNLSIMILALRPSDEGTYECVVMKYEKDAFKREHLAEVTLSVKAD
8 | – | – | – | – | – | – | – | 14.1 MFI | 285 fold | 14700 MFI | 1040 | 11.8 fold | 20700 MFI | 0.4 fold | – | – | – | – | – | – | CD80 T13R/Q33R/E35D/M47L/V68M IgV-Fc (Fc fusion) VIHVTKEVKEVARLSCGHNVSVEELAQTRIYWRKDKKMVLTMMSGDLNIWPEYKNRTIFDITNNLSIMILALRPSDEGTYECVVLKYEKDAFKREHLAEVTLSVKAD
9 | – | – | – | – | – | – | – | 476 MFI | 287 fold | 14800 MFI | 31.1 | 10.5 fold | 18400 MFI | 15.2 fold | – | – | – | – | – | – | CD80 E35D/T41S/D46E/M47I/V68M/K93R/E95V IgV-Fc (Fc fusion) VIHVTKEVKEVATLSCGHNVSVEELAQTRIYWQKDKKMVLSMMSGEINIWPEYKNRTIFDITNNLSIMILALRPSDEGTYECVVLKYEKDAFRRVHLAEVTLSVKAD
10 | – | – | – | – | – | – | – | 1040 MFI | 290 fold | 14900 MFI | 14.3 | 9.3 fold | 16300 MFI | 33.2 fold | – | – | – | – | – | – | CD80 H18Y/E35D/V68M/T79M/L85M IgV-Fc (Fc fusion) VIHVTKEVKEVATLSCGYNVSVEELAQTRIYWQKDKKMVLTMMSGDMNIWPEYKNRTIFDITNNLSIMILALRPSDEGMYECVVMKYEKDAFKREHLAEVTLSVKAD
11 | – | – | – | – | – | – | – | 1110 MFI | 372 fold | 19200 MFI | 17.2 | 11.8 fold | 20700 MFI | 35.4 fold | – | – | – | – | – | – | CD80 T13R/Q33R/E35D/M38I/M47L/V68M/E95V/L97Q IgV-Fc (Fc fusion) VIHVTKEVKEVARLSCGHNVSVEELAQTRIYWRKDKKIVLTMMSGDLNIWPEYKNRTIFDITNNLSIMILALRPSDEGTYECVVLKYEKDAFKRVHQAEVTLSVKAD
12 | 11000 MFI | – | – | – | – | 13900 MFI | – | 1070 MFI | – | – | – | – | – | – | – | – | 10.7 fold | 13 | 166 fold | 25.9 fold | CD80 IgV-Fc S15T/H18Y/E35D/M47V/T62A/N64S/A71G/L85Q/D90N (Fc fusion) VIHVTKEVKEVATLTCGYNVSVEELAQTRIYWQKDKKMVLTMMSGDVNIWPEYKNRTIFDIANSLSIVILGLRPSDEGTYECVVQKYEKNAFKREHLAEVTLSVKAD
13 | 27100 MFI | 4.52 fold | 4.52 fold | 22.6 fold | 23 fold | 24500 MFI | 525 fold | 1280 MFI | – | – | – | – | – | – | – | – | – | – | – | – | CD80 E35D/M47V/N48K/V68M/K89N IgV-Fc, (EAAAK)3 linker (Fc fusion) VIHVTKEVKEVATLSCGHNVSVEELAQTRIYWQKDKKMVLTMMSGDVKIWPEYKNRTIFDITNNLSIMILALRPSDEGTYECVVLKYENDAFKREHLAEVTLSVKADEAAAKEAAAKEAAAK
14 | 32000 MFI | 5.25 fold | 5.25 fold | 26.8 fold | 3.5 fold | 25500 MFI | 546 fold | 197 MFI | – | – | – | – | – | – | – | – | – | – | – | – | CD80 E35D/D46V/M47L/V68M/L85Q/E88D IgV-Fc, (EAAAK)3 linker (Fc fusion) VIHVTKEVKEVATLSCGHNVSVEELAQTRIYWQKDKKMVLTMMSGVLNIWPEYKNRTIFDITNNLSIMILALRPSDEGTYECVVQKYDKDAFKREHLAEVTLSVKADEAAAKEAAAKEAAAK
15 | 27500 MFI | 4.38 fold | 4.38 fold | 23 fold | 47.1 fold | 22900 MFI | 491 fold | 2630 MFI | – | – | – | – | – | – | – | – | – | – | – | – | CD80 E35D/M47V/N48K/V68M/K89N IgV-Fc, EAAAK linker (Fc fusion) VIHVTKEVKEVATLSCGHNVSVEELAQTRIYWQKDKKMVLTMMSGDVKIWPEYKNRTIFDITNNLSIMILALRPSDEGTYECVVLKYENDAFKREHLAEVTLSVKADEAAAK
16 | 29000 MFI | 3.75 fold | 3.75 fold | 24.2 fold | 10.1 fold | 24800 MFI | 533 fold | 563 MFI | – | – | – | – | – | – | – | – | – | – | – | – | CD80 E35D/D46V/M47L/V68M/L85Q/E88D IgV-Fc, EAAAK linker (Fc fusion) VIHVTKEVKEVATLSCGHNVSVEELAQTRIYWQKDKKMVLTMMSGVLNIWPEYKNRTIFDITNNLSIMILALRPSDEGTYECVVQKYDKDAFKREHLAEVTLSVKADEAAAK
